The text below walks through data of US20200385441A1 (TECHNION RESEARCH AND DEVELOPMENT FOUNDATION, published 2020).

For this experiment, the target named is T1, human Melanoma-associated Chondroitin Sulfate Proteoglycan (MCSP) (human, UniProt Q6UVK1 30-2322).
T1 construct: whole, on cells; also called CSPG4; NG2
In words: flow cytometry on B16F10-MCSP (C25) cells, detected with Strep-PE or fold-specific anti-H-2K antibody. Background: In flow cytometry, cells or beads pass a laser one at a time.

T1 sequence (Q6UVK1 30-2322): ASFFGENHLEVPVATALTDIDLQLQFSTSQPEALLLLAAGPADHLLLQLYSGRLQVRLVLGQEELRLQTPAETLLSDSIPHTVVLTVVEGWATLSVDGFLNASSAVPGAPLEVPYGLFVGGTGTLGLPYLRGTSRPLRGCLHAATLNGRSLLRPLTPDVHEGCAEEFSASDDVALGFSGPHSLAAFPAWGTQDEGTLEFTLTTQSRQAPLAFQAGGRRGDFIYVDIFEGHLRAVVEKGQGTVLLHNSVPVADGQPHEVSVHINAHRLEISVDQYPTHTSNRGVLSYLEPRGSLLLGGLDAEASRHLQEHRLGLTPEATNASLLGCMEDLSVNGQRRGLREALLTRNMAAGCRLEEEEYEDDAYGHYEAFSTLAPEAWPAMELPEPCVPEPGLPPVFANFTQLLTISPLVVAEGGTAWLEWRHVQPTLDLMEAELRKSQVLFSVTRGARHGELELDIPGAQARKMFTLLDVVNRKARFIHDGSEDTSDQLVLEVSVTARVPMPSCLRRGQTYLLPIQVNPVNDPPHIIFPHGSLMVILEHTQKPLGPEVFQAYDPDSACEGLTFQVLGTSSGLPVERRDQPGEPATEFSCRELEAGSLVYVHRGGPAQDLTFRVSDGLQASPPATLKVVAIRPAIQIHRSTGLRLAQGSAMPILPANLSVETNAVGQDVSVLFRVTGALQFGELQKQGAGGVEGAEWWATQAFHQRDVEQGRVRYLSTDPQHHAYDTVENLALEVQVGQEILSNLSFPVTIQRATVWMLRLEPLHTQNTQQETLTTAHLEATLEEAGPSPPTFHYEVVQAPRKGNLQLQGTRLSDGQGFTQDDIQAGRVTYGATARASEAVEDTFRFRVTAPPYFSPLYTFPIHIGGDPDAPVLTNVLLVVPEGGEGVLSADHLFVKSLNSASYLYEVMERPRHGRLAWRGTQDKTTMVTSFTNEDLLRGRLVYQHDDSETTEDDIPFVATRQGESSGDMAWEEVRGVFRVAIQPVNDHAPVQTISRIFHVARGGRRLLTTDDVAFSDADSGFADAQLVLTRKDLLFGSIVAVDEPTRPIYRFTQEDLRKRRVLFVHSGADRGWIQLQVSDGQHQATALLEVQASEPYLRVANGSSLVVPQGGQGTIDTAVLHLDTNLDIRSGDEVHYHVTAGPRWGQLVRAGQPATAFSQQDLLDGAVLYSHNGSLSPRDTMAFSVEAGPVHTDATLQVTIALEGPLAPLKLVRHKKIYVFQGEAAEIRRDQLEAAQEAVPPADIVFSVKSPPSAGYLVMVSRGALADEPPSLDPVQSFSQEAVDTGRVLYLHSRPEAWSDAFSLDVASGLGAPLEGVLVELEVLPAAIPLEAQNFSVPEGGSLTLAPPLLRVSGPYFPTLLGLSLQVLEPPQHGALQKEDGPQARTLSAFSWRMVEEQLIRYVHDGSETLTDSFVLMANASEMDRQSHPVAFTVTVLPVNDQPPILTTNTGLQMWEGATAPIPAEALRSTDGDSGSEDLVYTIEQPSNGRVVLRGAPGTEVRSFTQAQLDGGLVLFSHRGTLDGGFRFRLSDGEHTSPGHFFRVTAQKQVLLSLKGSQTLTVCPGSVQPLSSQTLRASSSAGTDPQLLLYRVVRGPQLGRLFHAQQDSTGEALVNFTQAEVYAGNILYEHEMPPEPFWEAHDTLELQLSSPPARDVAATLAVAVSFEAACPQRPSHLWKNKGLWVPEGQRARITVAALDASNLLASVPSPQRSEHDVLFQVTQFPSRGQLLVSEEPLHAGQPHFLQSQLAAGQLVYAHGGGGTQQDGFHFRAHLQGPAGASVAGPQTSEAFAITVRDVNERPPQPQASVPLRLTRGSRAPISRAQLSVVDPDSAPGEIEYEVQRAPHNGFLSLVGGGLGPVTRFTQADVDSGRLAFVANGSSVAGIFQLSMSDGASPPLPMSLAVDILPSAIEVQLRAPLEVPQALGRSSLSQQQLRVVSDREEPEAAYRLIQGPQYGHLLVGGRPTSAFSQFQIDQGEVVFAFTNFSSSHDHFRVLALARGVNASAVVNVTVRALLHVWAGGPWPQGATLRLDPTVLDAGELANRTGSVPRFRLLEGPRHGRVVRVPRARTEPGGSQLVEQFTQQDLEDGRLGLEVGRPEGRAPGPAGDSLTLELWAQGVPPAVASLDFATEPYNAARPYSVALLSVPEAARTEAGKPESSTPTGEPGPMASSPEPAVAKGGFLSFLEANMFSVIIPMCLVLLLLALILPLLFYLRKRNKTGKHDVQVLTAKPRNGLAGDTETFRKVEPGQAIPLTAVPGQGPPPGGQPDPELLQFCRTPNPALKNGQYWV

B1: BA3 biotinylated peptide-H-2Kd-anti-MCSP scFv fusion protein, 20 amino acid β2M-MHC linker (peptide-MHC)
chain: TYQRTRALVGGGGSGGGGSGGGGSIQKTPQIQVYSRHPPENGKPNILNCYVTQFHPPHIEIQMLKNGKKIPKVEMSDMSFSKDWSFYILAHTEFTPTETDTYACRVKHVSMAEPKTVYWDRDMGGGGSGGGGSGGGGSGGGGSGPHSLRYFVTAVSRPGLGEPRFIAVGYVDDTQFVRFDSDADNPRFEPRAPWMEQEGPEYWEEQTQRAKSDEQWFRVSLRTAQRYYNQSKGGSHTFQRMFGCDVGSDWRLLRGYQQFAYDGRDYIALNEDLKTWTAADTAALITRRKWEQAGDAEYYRAYLEGECVEWLRRYLELGNETLLRTDSPKAHVTYHPRSQVDVTLRCWALGFYPADITLTWQLNGEDLTQDMELVETRPAGDGTFQKWAAVVVPLGKEQNYTCHVHHKGLPEPLTLRWKLPPSTASGGQVKLQQSGGGLVQPGGSMKLSCVVSGFTFSNYWMNWVRQSPEKGLEWIAEIRLKSNNFGRYYAESVKGRFTISRDDSKSSAYLQMINLRAEDTGIYYCTSYGNYVGHYFDHWGQGTTVTVSSGGGGSGGGGSGGGGSDIELTQSPKFMSTSVGDRVSVTCKASQNVDTNVAWYQQKPGQSPEPLLFSASYRYTGVPDRFTGSGSGTDFTLTISNVQSEDLAEYFCQQYNSYPLTFGGGTKLEIKRAHHHHHHGLNDIFEAQKIEWH
notes: also called BA-biotin fusion molecule; biotinylated ScFv-MHC molecule
Take B1: the binding result is listed as “binds”.
